Results taken from patent US7939057B2, “Methods and compositions for modulating the mobilization of stem cells” (Mount Sinai School of Medicine, priority 2006, dated 2011).

How the values were obtained:
[1] = system: hematopoietic stem and progenitor cells (HSPCs); test: G-CSF-induced mobilization of hematopoietic progenitors (circulating CFU-C); type: in vivo, mice
Description: To induce HSPC mobilization, mice were injected with recombinant human G-CSF (Filgrastim, Amgen, Thousand Oaks, Calif., 250 μg/kg/day, every 12 hours, 8 divided doses, s.c.) in PBS supplemented with 0.1% endotoxin free bovine serum albumin (BSA) or fucoidan (Sigma; 2 doses of 100 mg/kg with 2 h interval, i.p.) in PBS. Blood was harvested 3 h (G-CSF) or 1 h (fucoidan). CFU-C assays were carried out as previously described (Katayama, Y., and Frenette, P. S. (2003). Galactocerebrosides are required postnatally for stromal-dependent bone marrow lymphopoiesis. Immunity 18, 789-800).
A chronic guide cannula (1.0 mm) was implanted stereotaxically into the lateral ventricle (coordinates AP, −0.7 mm; DV, −2.4 mm; ML, 1.5 mm, from bregma). One week after implantation, mice received a reduced dose of G-CSF (25 μg/kg daily for 4 doses) either by ICV infusion (rate: 0.4 μL/min) or by s.c. injection.
Newborn C57BL/6 mice were injected s.c. with 6OHDA (100 mg/kg, Sigma) or vehicle (saline) on postnatal days 2, 4, 6, 8 and 9. HSPC mobilization was induced at 3 weeks of age. For SNS disruption in adult C57BL6 mice, 4 week-old animals were injected i.p. with 2 doses of 6OHDA or vehicle, 100 mg/kg on day 0, 250 mg/kg on day 2, and G-CSF treatment was begun on day 5. For β-adrenergic receptor blockade, 4 week-old C57BL/6 mice were treated with propranolol (0.5 g/L in drinking water, Sigma) or control pure water for 3 weeks prior to mobilization. For rescue experiments, clenbuterol (2 mg/kg/day, i.p.) was injected starting day −2 prior to and continued during G-CSF treatment.

[2] = system: α1(I) collagen; test: Q-PCR of α1(I) collagen in BMNCs after G-CSF; type: in vivo; details: bone marrow of Cgt+/+ mice after G-CSF; n=4, p<0.05
Description: (§1) Methods, primers and PCR conditions are available in Table S3. Briefly, total RNA was extracted from BMNC using TRIzol solution (Invitrogen, Carlsbad, Calif.). The bone carcass was then immersed in liquid nitrogen, and pulverized into powder followed by RNA extraction with TRIzol. Total RNA (1 μg) was treated with DNaseI (Invitrogen, Carlsbad, Calif.), and reverse transcribed using first strand cDNA synthesis with random primers (Promega, Madison, Wis.). Q-PCR was performed using SYBR Green (Molecular Probes) on an ABI PRISM 7900HT Sequence Detection System (Applied Biosystems, Foster city, CA). All experiments were done in triplicate and normalized to GAPDH.

[3] = system: CXCL12; test: CXCL12α and CXCL12β mRNA by Q-PCR in BM and bone after G-CSF; type: in vivo, mice
Description: as §1

B1: G-CSF: recombinant human G-CSF (Filgrastim, Amgen), hematopoietic cytokine used to elicit HSPC mobilization (protein, UniProt P09919 31-207, looked up)
Granulocyte …: TPLGPASSLPQSFLLKCLEQVRKIQGDGAALQEKLVSECATYKLCHPEELVLLGHSLGIPWAPLSSCPSQALQLAGCLSQLHSGLFLYQGLLQALEGISPELGPTLDTLQLDVADFATTIWQQMEELGMAPALQPTQGAMPAFASAFQRRAGGVLVASHLQSFLEVSYRVLRHLAQP
modifications: filgrastim
notes: recombinant human G-CSF (Filgrastim, Amgen), hematopoietic cytokine used to elicit HSPC mobilization
HSPC mobilization by route of G-CSF ([1]; C57BL/6 mice, ICV infusion vs s.c. injection, 25 μg/kg daily for 4 doses): robust HSPC mobilization occurred only when mice were treated systemically
G-CSF-induced mobilization in chimeric mice ([1]; CD45.1 wild-type mice reconstituted with Cgt+/+ or −/− BM): similar
G-CSF-induced mobilization of HSPCs ([1]; Cgt−/− mice compared to Cgt+/− or +/+ littermates): little mobilization
G-CSF-triggered mobilization of CFU-Cs and Lin-Sca-1+c-kit+ cells ([1]; Dbh−/− compared to Dbh+/− littermates): dramatically compromised
numbers of circulating progenitors after G-CSF ([1]; Lepr(db/db) vs Lepr(+/db) mice, human G-CSF 250 μg/kg/day, n=5): no difference
circulating CFU-Cs elicited by G-CSF ([1]; Rag 1−/− and IL7Rα−/− mice, data not shown): elicited at levels similar to those of wild-type mice
α1(I) collagen, reduction [2]: 92%
CXCL12 mRNA levels in bone ([3]; after G-CSF treatment, p<0.05 for CXCL12α, p=0.06 for CXCL12β): moderately decreased
mRNA expression of both CXCL12 isoforms in BM ([3]; after G-CSF, Cgt−/− and normal littermates): profoundly decreased
